# T1: recombinant human ADAMTS5 (R&D Systems cat #2198-AD) (human, UniProt Q9UNA0 262-622, limits assumed)
# T1 sequence: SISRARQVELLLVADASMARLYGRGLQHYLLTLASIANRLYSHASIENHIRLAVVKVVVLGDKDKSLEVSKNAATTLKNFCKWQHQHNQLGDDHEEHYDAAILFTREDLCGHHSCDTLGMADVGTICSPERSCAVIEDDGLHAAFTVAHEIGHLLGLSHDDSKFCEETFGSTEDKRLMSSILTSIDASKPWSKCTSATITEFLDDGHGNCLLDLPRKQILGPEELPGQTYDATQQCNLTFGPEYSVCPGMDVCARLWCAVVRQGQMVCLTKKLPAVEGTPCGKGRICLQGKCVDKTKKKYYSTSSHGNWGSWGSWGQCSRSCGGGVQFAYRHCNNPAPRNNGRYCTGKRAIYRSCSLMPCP
# T2: rat recombinant ADAMTS5 (rat, UniProt Q9R001 262-618 (mouse entry))
# T2 construct: in house, HEK293, His tag in the entry
# T2 chain: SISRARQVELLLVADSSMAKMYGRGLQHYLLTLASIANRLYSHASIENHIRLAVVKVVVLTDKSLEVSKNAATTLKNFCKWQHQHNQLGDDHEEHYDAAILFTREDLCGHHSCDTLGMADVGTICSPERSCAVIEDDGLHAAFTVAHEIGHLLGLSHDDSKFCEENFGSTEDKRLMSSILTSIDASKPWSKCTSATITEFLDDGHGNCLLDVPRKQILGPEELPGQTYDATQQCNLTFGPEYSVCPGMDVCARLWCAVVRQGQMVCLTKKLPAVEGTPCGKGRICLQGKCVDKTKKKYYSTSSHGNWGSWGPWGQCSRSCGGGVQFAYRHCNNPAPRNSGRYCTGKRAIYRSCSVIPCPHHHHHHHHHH
# Key:
# [1] = biological target: T1, recombinant human ADAMTS5 (R&D Systems …); test: cell-based or functional assay
# [2] = biological target: T1, recombinant human ADAMTS5 (R&D Systems …); test: SPR off-rate, Biacore T100, ADAMTS5 immobilised, experiment 2
# Protocol: Species cross-reactivity was initially evaluated via SPR-based off-rate analysis on a Biacore T100 instrument. Nanobodies were tested for binding to human, cynomolgus monkey (“cyno”), guinea pig, mouse, and bovine ADAMTS5. To this end, recombinant ADAMTS5 was immobilized onto a CM5 chip via amine coupling using EDC and NHS. Purified Nanobodies were injected for 2 minutes at a concentration of 100 nM and allowed to dissociate for 15 min at a flow rate of 45 ul/min. Off-rate for each individual Nanobody was determined by fitting a 1:1 interaction model (Langmuir model) onto the individual dissociation curves using the BIA Evaluation software. As a reference, off-rates on human ADAMTS5 were determined in each experiment.
# [3] = biological target: T1, recombinant human ADAMTS5 (R&D Systems …); test: SPR kinetics, Biacore T100, ADAMTS5 immobilised
# Protocol: (§1) For referencing, affinity for human ADAMTS5 was also determined. Thereto, rat and human ADAMTS5 were immobilized onto a CM5 chip via amine coupling, using EDC and NHS chemistry. Purified Nanobodies were injected for 2 minutes at different concentrations (between 1 and 1000 nM) and allowed to dissociate for 25 min at a flow rate of 45 μl/min. The kinetic constants were calculated from the sensorgrams using the BIAEvaluation software (1:1 interaction).
# rat recombinant ADAMTS5 = biological target: T2, rat recombinant ADAMTS5; test: SPR kinetics, Biacore T100, ADAMTS5 immobilised
# Protocol: as §1
# [4] = biological target: T1, recombinant human ADAMTS5 (R&D Systems …); test: cell-based or functional assay; remark: listed apart in the source
Human AlphaLISA % inhibition [1],Human AlphaLISA IC50 [1],koff [2],Kd [3],Kd (rat recombinant ADAMTS5),"AlphaLISA IC50, - HSA [4]",Binder
100%,150 pM,0.00023 s⁻¹,1900 pM,1000 pM,150 pM,"Nanobody 2A12 (VHH, tagged as tested (anti-Flag detection, IMAC); also called 02A12) VHH: EVQLVESGGGLVQAGGSLRLSCAASGRTFSSYAMGWFRQAPGKERDFVAGISRSAGRTYYVDSVKGRFTISRDSAKNTVYLQMNRLKPEDTAVYYCAADLDPNRIFSRDEAAYWGQGTLVTVSS"
100%,75 pM,6.5e-05 s⁻¹,1600 pM,700 pM,75 pM,"Nanobody 2F03 (VHH, tagged as tested (anti-Flag detection, IMAC); also called 02F03; 2F3) VHH: EVQLVESGGGLVQAGGSLRLSCAASGRTVSSYAMGWFRLAPGKEREFVAGISRSAERTYYVDSLKGRFTISRDSAKNTVYLHMNRLKPEDTAVYYCAADLDPNRIFSREEYAYWGQGTLVTVSS"

# Reference: patent US20200317802A1 (Merck KGaA, published 2020)
